Experimental data taken from article PMC10976474.

How the values were obtained:
[1] = molecular target: T1, MBP-PhoB (Synechococcus sp. WH7803) (UniProt A0ACE0B1Y2); assay: EMSA; settings: 10 mM Tris-HCl pH 8, 50 mM KCl, 2 mM MgCl2, 5% glycerol, 0.05 mg/mL BSA, 1 mM DTT, 3 mM spermidine (described as 2x binding buffer); 25 ng DNA, 30 min at 23 C …
T1 sequence: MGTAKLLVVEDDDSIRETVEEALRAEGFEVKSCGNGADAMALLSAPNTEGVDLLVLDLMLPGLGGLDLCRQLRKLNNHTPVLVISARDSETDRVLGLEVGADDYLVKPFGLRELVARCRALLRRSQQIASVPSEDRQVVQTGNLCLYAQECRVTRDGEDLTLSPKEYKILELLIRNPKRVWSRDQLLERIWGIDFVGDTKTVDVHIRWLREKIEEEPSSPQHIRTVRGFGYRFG

[2] = molecular target: T1, MBP-PhoB (Synechococcus sp. WH7803); assay: competition; settings: 10 mM Tris-HCl pH 8, 50 mM KCl, 2 mM MgCl2, 5% glycerol, 0.05 mg/mL BSA, 1 mM DTT, 3 mM spermidine (described as 2x binding buffer); 25 ng DNA, 30 min at 23 C …

| Sequence | binding [1] | binding [2] |
| --- | --- | --- |
| TACACTATCTAGGAAACTCATAAATTACCTCTTAGAAAAAACTTAATAGAGAAACTTTTTTCTCATAATCCCAACCAATACATTCTAGCACATTTTTCAATGGTTCCAAGAAAGACTTCTCAAACTGAGTCTGATAGTCAATATACTTATCAACGTTAAACTCCTTGGGAATGTCACTGAAGAATGATATGCAGTTCTCCTGAATTGGGTTTGGTGTTCTCAAG (double strand) [FAM-S-PM2d134 promoter] | binds | – |
| AGTTCTTCCCGAGGATTTGTTCGATGAATTCTGAACCAGTAACATCACTTTATCTCTCATTTAACCAAATCAAGTATATTCTTGATGTTATGTGGGGAACCGATCCAGTTACAGCAAAACTATTTGCAAACTCTCACGGAGTTGATGATACCGAACTGGAACGTTATCTTTCCTCTCGTTTAACTGATGGTGATATAACTAAAGTAGATTATACAATTCTTGGAGAAAAATGATTAATGTCAAACAAGAAGATAACGGCAGCTTCAC (double strand) [FAM-S-PM2d004 promoter] | binds | – |
| GTAACTTCCGACACAAATTCTTGATAGCGTTCAAAGTTTACTTTAGACATATTAGATAATAAAAGAACTGAATTTGTCAATTCGCTTTTGGCGAGTTGAAAGGTCTTCAAAAGAATCCGCTAGATCTTCCTGTTCGACAAGAGCATCAGCAGATGTCTCATCATCAACATTATACAGCTTCATCTTTGCTCTGTCAATACCAACTGTAAAACGGCGATGCATCGTAGGATCATTATATCGATTCTTCAATTGCTTCACCATAATACGACTGGATTGTTCT (double strand) [S-PM2d136 (mazG) promoter] | no binding | no binding |
| TACACTATCTAGGAAACTCATAAATTACCTCTTAGAAAAAACTTAATAGAGAAACTTTTTTCTCATAATCCCAACCAATACATTCTAGCACATTTTTCAATGGTTCCAAGAAAGACTTCTCAAACTGAGTCTGATAGTCAATATACTTATCAACGTTAAACTCCTTGGGAATGTCACTGAAGAATGATATGCAGTTCTCCTGAATTGGGTTTGGTGTTCTCAAG (double strand) [S-PM2d134 (uvsX) promoter] | binds | binds |
| AGGGGTACTGGATCATTTCTGAAGTTGAAGAAATTGATGGTTTGGAGTTTGGGGACCCCGATTGTATGTTAAAATATCCATATGCAGTTGAACAAGGGGTCCTCGTCCCATGGCCACCATATTCAACAGAAAAAAAGATCATTGTAAGATCTTCCGAGATCAGTGTCATGGTTGATCCAGATGCTCCTCGCCTTGCAGATTATGCCAAATTGAAATCAGAAGAGACCTAATGAAATTTTACACCAGCGTACAACAAGCAGGTA (double strand) [S-PM2d133 (gp43) promoter (full-length fragment)] | binds | – |
| CAGCAAGAGCGACTTCAATTTCGAAGTTATTATTGTCATGTTTGATTAAATTGTAGGGCGGGTAATTTTTATTGTGATGTGTCATCGAATCCAATCGATGAAATACATCATCCAGACCTACAAAGTGGGGGGAGTAAATATCCCAAGTGAATTTAGTCATTGCTTTCTCCTTTATTTAAGCGAGTTTGAATTAGGATCTCA (double strand) [S-PM2d130 (hsp20) promoter] | no binding | – |
| AGTTCTTCCCGAGGATTTGTTCGATGAATTCTGAACCAGTAACATCACTTTATCTCTCATTTAACCAAATCAAGTATATTCTTGATGTTATGTGGGGAACCGATCCAGTTACAGCAAAACTATTTGCAAACTCTCACGGAGTTGATGATACCGAACTGGAACGTTATCTTTCCTCTCGTTTAACTGATGGTGATATAACTAAAGTAGATTATACAATTCTTGGAGAAAAATGATTAATGTCAAACAAGAAGATAACGGCAGCTTCAC (double strand) [S-PM2d004 promoter (full-length fragment)] | binds | binds |
